Measured values published in patent US20170015742A1 (published 2017).

B1: CL-33578-IgG (antibody, V domains shown)
VH: EVTLRESGPALVKPTQTLTLTCTFSGFSLSTYGMGVGWIRQPPGKALEWLANIWWDDDKYYNPSLKNRLTISKDTSKNQVVLTMTNMDPVDTATYYCARIQSGWTNYEFDYWGQGTMVTVSS
VL: EIVLTQSPGTLSLSPGERATLSCERSSGDIGDSYVSWYQQKPGQAPRLVIYADDQRPSGIPDRFSGSGSGTDFTLTISRLEPEDFAVYYCQSYDINIDIVFGGGTKVEIK
B2: CL-33759-IgG (antibody, V domains shown)
VH: EVTLRESGPALVKPTQTLTLTCTFSGFSLSTYGMGVGWIRQPPGKALEWLANIWWDDDKYYNPSLKNRLTISKDTSKNQVVLTMTNMDPVDTATYYCARIESVWTRYDFDYWGQGTMVTVSS
VL: EIVLTQSPGTLSLSPGERATLSCERSSGDIWQTYVSWYQQKPGQAPRLVIYGDDQRASGIPDRFSGSGSGTDFTLTISRLEPEDFAVYYCQSYDIDIDITFGGGTKVEIK
B3: CL-33675-IgG (antibody, V domains shown)
VH: EVTLRESGPALVKPTQTLTLTCTFSGFSLSTYGMGVGWIRQPPGKALEWLANIWWDDDKYYNPSLKNRLTISKDTSKNQVVLTMTNMDPVDTATYYCARIESSGPKYSFDYWGQGTMVTVSS
VL: EIVLTQSPGTLSLSPGERATLSCRASSGSIWYSFVSWYQQKPGQAPRLLIYADDQRASGIPDRFSGSGSGTDFTLTISRLEPEDFAVYYCQSYGINIDVVFGGGTKVEIK
B4: CL-33587-IgG (antibody, V domains shown)
VH: EVTLRESGPALVKPTQTLTLTCTFSGFSLSTYGMGVGWIRQPPGKALEWLANIWWDDDKYYNPSLKNRLTISKDTSKNQVVLTMTNMDPVDTATYYCARIQSMWTRYDFDYWGQGTMVTVSS
VL: EIVLTQSPGTLSLSPGERATLSCERSSGDIGDSYVSWYQQKPGQAPRLVIYADDQRPSGIPDRFSGSGSGTDFTLTISRLEPEDFAVYYCQSYDINIDIVFGGGTKVEIK
B5: CL-33811-IgG (antibody, V domains shown)
VH: EVTLRESGPALVKPTQTLTLTCTFSGFSLSTYGMGVGWIRQPPGKALEWLANIWWDDDKYYNPSLKNRLTISKDTSKNQVVLTMTNMDPVDTATYYCARIESSWTTYSFDYWGQGTMVTVSS
VL: EIVLTQSPGTLSLSPGERATLSCERSSGSIWHSYVSWYQQKPGQAPRLLIYSDDQRATGIPDRFSGSGSGTDFTLTISRLEPEDFAVYYCQSYGIYIDVVFGGGTKVEIK
B6: CL-33699-IgG (antibody, V domains shown)
VH: EVTLRESGPALVKPTQTLTLTCTFSGFSLSTYGMGIGWIRQPPGKALEWLANIWWDDDKYYNPSLKNRLTISKDTSKNQVVLTMTNMDPVDTATYYCARIESMGPKYAFDYWGQGTMVTVSS
VL: EIVLTQSPGTLSLSPGERATLSCRASSGSIWYSFVSWYQQKPGQAPRLLIYADDQRASGIPDRFSGSGSGTDFTLTISRLEPEDFAVYYCQSYGINIDVVFGGGTKVEIK
B7: CL-33737-IgG (antibody, V domains shown)
VH: EVTLRESGPALVKPTQTLTLTCTFSGFSLSTYGMGVGWIRKPPGKALEWLANIWWDDDKYYNPSLKNRLTISKDTSKNQVVLTMTNMDPVDTATYYCARIESSGPKYSFDYWGQGTMVTVSS
VL: EIVLTQSPGTLSLSPGERATLSCRASSGSIWYSFVSWYQQKPGQAPRLLIYADDQRASGIPDRFSGSGSGTDFTLTISRLEPEDFAVYYCQSYGINIDVVFGGGTKVEIK
B8: CL-33706-IgG (antibody, V domains shown)
VH: EVTLRESGPALVKPTQTLTLTCTFSGFSLSTYGMGVGWIRQPPGKALEWLANIWWDDDKYYNPSLKNRLTISKDTSKNQVVLTMTNMDPVDTATYYCARIETMGPKYSFDYWGQGTMVTVSS
VL: EIVLTQSPGTLSLSPGERATLSCRASSGSIWYSFVSWYQQKPGQAPRLLIYADDQRASGIPDRFSGSGSGTDFTLTISRLEPEDFAVYYCQSYGINIDVVFGGGTKVEIK
B9: CL-33731-IgG (antibody, V domains shown)
VH: EVTLRESGPALVKPTQTLTLTCTFSGFSLSTYGMGVGWIRQPPGKALEWLANIWWDDDKYYNPSLKNRLTISKDTSKNQVVLTMTNMDPVDTATYYCARIESIPTSYSFDYWGQGTMVTVSS
VL: EIVLTQSPGTLSLSPGERATLSCERSSGSIWQSYVSWYQQKPGQAPRLVIYADDQRATGIPDRFSGSGSGTDFTLTISRLEPEDFAVYYCQSYDIDIDVVFGGGTKVEIK
B10: CL-33683-IgG (antibody, V domains shown)
VH: EVTLRESGPALVKPTQTLTLTCTFSGFSLSTYGMGVGWIRQPPGKALEWLANIWWDDDKYYNPSLKNRLTISKDTSKNQVVLTMTNMDPVDTATYYCARIETIGPKYSFDYWGQGTMVTVSS
VL: EIVLTQSPGTLSLSPGERATLSCRASSGSIWYSFVSWYQQKPGQAPRLLIYADDQRASGIPDRFSGSGSGTDFTLTISRLEPEDFAVYYCQSYGINIDVVFGGGTKVEIK
B11: CL-33812-IgG (antibody, V domains shown)
VH: EVTLRESGPALVKPTQTLTLTCTFSGFSLSTYGMGVGWIRQPPGKALEWLANIWWDDDKYYNPSLKNRLTISKDTSKNQVVLTMTNMDPVDTATYYCARIESNPWKYSFDYWGQGTMVTVSS
VL: EIVLTQSPGTLSLSPGERATLSCERSSGDIWQSYVSWYQQKPGQAPRLVIYSDDQRASGIPDRFSGSGSGTDFTLTISRLEPEDFAVYYCQSYGINIDVVFGGGTKVEIK
B12: CL-33682-IgG (antibody, V domains shown)
VH: EVTLRESGPALVKPTQTLTLTCTFSGFSLSTYGMGVGWIRQPPGKALEWLANIWWDDDKYYNPSLKNRLTISKDTSKNQVVLTMTNMDPVDTATYYCARIESSWTSYSFDYWGQGTMVTVSS
VL: EIVLTQSPGTLSLSPGERATLSCERSSGSNYDTYVSWYQQKPGQAPRLLIYADDLRASGIPDRFSGSGSGTDFTLTISRLEPEDFAVYYCQSYGINIDVVFGGGTKVEIK
B13: CL-33767-IgG (antibody, V domains shown)
VH: EVTLRESGPALVKPTQTLTLTCTFSGFSLSTYGMGVGWIRQPPGKALEWLANIWWDDDKYYNPSLKNRLTISKDTSKNQVVLTMTNMDPVDTATYYCARIESIGPKYSFDYWGQGTMVTVSS
VL: EIVLTQSPGTLSLSPGERATLSCRASSGSIWYSFVSWYQQKPGQAPRLLIYADDQRASGIPDRFSGSGSGTDFTLTISRLEPEDFAVYYCQSYGINIDVVFGGGTKVEIK
B14: CL-33845-IgG (antibody, V domains shown)
VH: EVTLRESGPALVKPTQTLTLTCTFSGFSLSTYGMGVGWIRQPPGKALEWLANIWWDDDKYYNPSLKNRLTISKDTSKNQVVLTMTNMDPVDTATYYCARIVSDWTTYSFDYWGQGTMVTVSS
VL: EIVLTQSPGTLSLSPGERATLSCRASSGSIWYSFVSWYQQKPGQAPRLLIYADDQRASGIPDRFSGSGSGTDFTLTISRLEPEDFAVYYCQSYGINIDVVFGGGTKVEIK

Experiments:
Human PDGF-BB [1] = target: T1, Human PDGF-BB (human, UniProt P01127 82-190); experiment: cell-based or functional assay
[2] = target: T2, Cynomolgus monkey PDGF-BB (cynomolgus monkey, UniProt P01127 82-190 (human entry), limits assumed); experiment: cell-based or functional assay
T2 chain: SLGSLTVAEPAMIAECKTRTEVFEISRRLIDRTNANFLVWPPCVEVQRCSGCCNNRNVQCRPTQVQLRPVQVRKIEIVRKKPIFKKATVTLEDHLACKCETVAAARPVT

Human PDGF-BB [3] = target: T1, Human PDGF-BB; experiment: Biacore SPR, antibody captured by anti-human Fc, PDGF-BB as analyte
Method: Unreacted moieties on the biosensor surface were blocked with ethanolamine. For kinetic analysis, rate equations derived from the 1:1 Langmuir binding model were fitted simultaneously to multiple antigen injections (using global fit analysis) with the use of Scrubber 2 (BioLogic Software), Biacore Biaevaluation 4.0.1 software or Biacore T100 Evaluation software. Purified antibodies or DVD-Ig molecules were diluted in running buffer for capture across goat anti-human Fc reaction surfaces. Antibodies or DVD-Ig molecules to be captured as a ligand (1 μg/ml) were injected over reaction matrices at a flow rate of 10 μl/minute. During the assay, all measurements were referenced against the capture surface alone (i.e., with no captured antibody or DVD-Ig molecule). […] The equilibrium dissociation constant KD (M) of the reaction between antibodies and the target antigen was then calculated from the kinetic rate constants by the following formula: KD=Koff/Kₒₙ. Binding was recorded as a function of time and kinetic rate constants were calculated. In this assay, on-rates as fast as 10⁶M⁻¹s⁻¹ and off-rates as slow as 10⁻⁶ s⁻¹ could be measured. […]

Human PDGF-BB [4] = target: T1, Human PDGF-BB; experiment: competition ELISA: antibody pre-incubated with hPDGF-BB-biotin, binding to coated hPDGF-Rβ-Fc
Method: Plates were then washed four times with wash buffer (TBS, 0.05% Tween-20) and blocked with Superblock blocking buffer (Thermo Scientific, cat#37535). During the blocking step, supernatants, antibodies, benchmark compounds or DVD-Ig were diluted in assay diluent (10% Superblock containing 0.05% surfactamps) and an eight point titration of each sample molecule was performed. […] Following incubation, plates were washed four times with wash buffer. Detection reagent Streptavidin-polyHRP-40 (Fitzgerald, cat#65r-s104phrp) was diluted in assay diluent and added to plates (50 μL) for 45 minutes at 25° C. with shaking. Plates were washed four times with wash buffer and developed with the addition of Enhanced K-blue TMB substrate (Neogen, cat#308177). The reaction was stopped with 2N sulfuric acid (VWR, cat# BDH3500-1) and the absorbance was read at 450 nm-570 nm. […] Data was analyzed using Softmax Pro 4.8 software and IC₅₀ values calculated using a sigmoidal dose response (variable slope) fit in GraphPad Prism 5.
Potency was evaluated in both cell-based and ELISA formats.

Row | hPDGF-BB NIH-3T3 Proliferation IC50 (Human PDGF-BB [1]) | cynoPDGF-BB NIH-3T3 Proliferation IC50 [2] | Kd (Human PDGF-BB [3]) | kon (Human PDGF-BB [3]) | IC50 (Human PDGF-BB [4]) | Binder
1 | 0.033 nM | 0.023 nM | ≤ 0.0003 nM | ≥ 9e+07 M⁻¹ s⁻¹ | 0.049 nM | B1
2 | 0.293 nM | 0.18 nM |  |  | 1.27 nM | B2
3 | 0.04 nM | 0.024 nM | 0.00061 nM | 3.6e+07 M⁻¹ s⁻¹ | 0.054 nM | B3
4 | 0.046 nM | 0.029 nM | ≤ 0.00022 nM | ≥ 9e+07 M⁻¹ s⁻¹ | < 0.1 nM | B4
5 | 0.032 nM | 0.012 nM | 0.00045 nM | 2.7e+07 M⁻¹ s⁻¹ | 0.1 nM | B5
6 | 0.033 nM | 0.016 nM |  |  | 0.072 nM | B6
7 | 0.03 nM | 0.024 nM |  |  | 0.092 nM | B7
8 | 0.035 nM | 0.019 nM | 0.00069 nM | 1.8e+07 M⁻¹ s⁻¹ | 0.081 nM | B8
9 | 0.036 nM | 0.023 nM | 0.0002 nM | 8.1e+07 M⁻¹ s⁻¹ | 0.068 nM | B9
10 | 0.029 nM | 0.028 nM | 0.00044 nM | 1.9e+07 M⁻¹ s⁻¹ | 0.126 nM | B10
11 | 0.033 nM | 0.028 nM | 0.0003 nM | 6.3e+07 M⁻¹ s⁻¹ | 0.043 nM | B11
12 | 0.03 nM | 0.019 nM | ≤ 0.00024 nM | ≥ 9e+07 M⁻¹ s⁻¹ | 0.069 nM | B12
13 | 0.09 nM | 0.042 nM |  |  | 0.114 nM | B13
14 | 0.171 nM | 0.073 nM |  |  | 0.409 nM | B14
